Several values for one entry are separate records, joined by “and”; a condition that tells them apart may be missing. Identical values can stand only once.
What was measured:
[1] = biological target: human polyclonal IgG (Gammanorm) (human); test: column DBC; base A28; ligand 7.9 mg/ml
[2] = biological target: human polyclonal IgG (Gammanorm) (human); test: SPR; vs reference Zvar4; 0.5 M NaOH
[3] = biological target: human polyclonal IgG (Gammanorm) (human); test: column DBC; base A62b; ligand […]; conditions: ligand content 5.2 mg/ml
[4] = biological target: human polyclonal IgG (Gammanorm) (human); test: column DBC; base A29; ligand 11 mg/ml
[5] = biological target: human polyclonal IgG (Gammanorm) (human); test: column DBC; base B5; ligand 6.3 mg/ml
[6] = biological target: human polyclonal IgG (Gammanorm) (human); test: column DBC; base A65a; ligand 13.1 mg/ml
[7] = biological target: human polyclonal IgG (Gammanorm) (human); test: column DBC; ligand 16 mg/ml; before incubation in 1 M NaOH
[8] = biological target: human polyclonal IgG (Gammanorm) (human); test: column DBC; base A65a; ligand 13.6 mg/ml
[9] = biological target: human polyclonal IgG (Gammanorm) (human); test: column DBC; base A65a; ligand 6.1 mg/ml
[10] = biological target: human polyclonal IgG (Gammanorm) (human); test: column DBC; base A65b; ligand 8.8 mg/ml
[11] = biological target: human polyclonal IgG (Gammanorm) (human); test: column DBC; base A33; ligand 9.4 mg/ml
[12] = biological target: human polyclonal IgG (Gammanorm) (human); test: column DBC; base A62a; ligand 7.5 mg/ml
[13] = biological target: human polyclonal IgG (Gammanorm) (human); test: column DBC; base A18; ligand 13.4 mg/ml
[14] = biological target: human polyclonal IgG (Gammanorm) (human); test: SPR; after 100 CIP cycles 1 M NaOH
[15] = biological target: human polyclonal IgG (Gammanorm) (human); test: column DBC; base A39; ligand 10.48 mg/ml
[16] = biological target: human polyclonal IgG (Gammanorm) (human); test: column DBC; base A40; ligand 13.2 mg/ml
[17] = biological target: human polyclonal IgG (Gammanorm) (human); test: column DBC; base B5; ligand 9.6 mg/ml
[18] = biological target: human polyclonal IgG (Gammanorm) (human); test: column DBC; ligand 12 mg/ml; before incubation in 1 M NaOH
[19] = biological target: human polyclonal IgG (Gammanorm) (human); test: column DBC; base A38; ligand 7.5 mg/ml
[20] = biological target: human polyclonal IgG (Gammanorm) (human); test: SPR; after 300 CIP cycles 0.5 M NaOH
[21] = biological target: human polyclonal IgG (Gammanorm) (human); test: column DBC; base A20; ligand 7.3 mg/ml
[22] = biological target: human polyclonal IgG (Gammanorm) (human); test: SPR; vs reference Zvar4; 1 M NaOH
[23] = biological target: human polyclonal IgG (Gammanorm) (human); test: column DBC; base A29; ligand 7.3 mg/ml
[24] = biological target: human polyclonal IgG (Gammanorm) (human); test: column DBC; base A41; ligand 5.0 mg/ml
[25] = biological target: human polyclonal IgG (Gammanorm) (human); test: column DBC; base A41; ligand 8.83 mg/ml
[26] = biological target: human polyclonal IgG (Gammanorm) (human); test: column DBC; base C3; ligand 9.0 mg/ml
[27] = biological target: human polyclonal IgG (Gammanorm) (human); test: column DBC; base A33; ligand 7.33 mg/ml
[28] = biological target: human polyclonal IgG (Gammanorm) (human); test: column DBC; base C1; ligand 10.8 mg/ml
[29] = biological target: human polyclonal IgG (Gammanorm) (human); test: column DBC; base A62a; ligand 6.4 mg/ml
[30] = biological target: human polyclonal IgG (Gammanorm) (human); test: column DBC; base A41; ligand 13.0 mg/ml
[31] = biological target: human polyclonal IgG (Gammanorm) (human); test: column DBC; base A40; ligand 11.0 mg/ml
[32] = biological target: human polyclonal IgG (Gammanorm) (human); test: column DBC; base C4; ligand […]
[33] = biological target: human polyclonal IgG (Gammanorm) (human); test: column DBC; base A65b; ligand […]
[34] = biological target: human polyclonal IgG (Gammanorm) (human); test: column DBC; base A39; ligand 7.0 mg/ml
[35] = biological target: human polyclonal IgG (Gammanorm) (human); test: column DBC; base A18; ligand 8.2 mg/ml
[36] = biological target: human polyclonal IgG (Gammanorm) (human); test: SPR; after 200 CIP cycles 0.5 M NaOH
[37] = biological target: human polyclonal IgG (Gammanorm) (human); test: column DBC; base A38; ligand 11.34 mg/ml
[38] = biological target: human polyclonal IgG (Gammanorm) (human); test: column DBC; base H40; ligand […]
[39] = biological target: human polyclonal IgG (Gammanorm) (human); test: column DBC; base C2; ligand […]
[40] = biological target: human polyclonal IgG (Gammanorm) (human); test: column DBC; base A43; ligand 10.51 mg/ml
[41] = biological target: human polyclonal IgG (Gammanorm) (human); test: column DBC; base A28; ligand 11.9 mg/ml

Zvar(Q9A,N11E,Q40V,A42K,N43A,L44I)4 (designed binder)
Qb10% 2.4 min [1]: 42.4 mg/mL and 42 mg/mL | Qb10% 6 min [1]: 58.2 mg/mL and 58 mg/mL | capacity relative to ref. 100 cycles [2]: 1.34 | capacity relative to ref. 200 cycles [2]: 2.06 | capacity relative to ref. 300 cycles [2]: 3.56 | Qb10% 2.4 min [3]: 40 mg/mL | Qb10% 2.4 min [4]: 34.9 mg/mL | Qb10% 6 min [4]: 64.7 mg/mL | Qb10% 2.4 min [5]: 32 mg/mL | Qb10% 6 min [5]: 38 mg/mL | Qb10% 2.4 min [6]: 56 mg/mL | Qb10% 6 min [6]: 64 mg/mL | Qb10%, 6 min, before incubation [7]: 73 mg/mL | Qb10% 2.4 min [8]: 52 mg/mL | Qb10% 6 min [8]: 61 mg/mL | Qb10% 2.4 min [9]: 40 mg/mL | Qb10% 6 min [9]: 44 mg/mL | Qb10% 2.4 min [10]: 49 mg/mL | Qb10% 6 min [10]: 56 mg/mL | Qb10% 2.4 min [11]: 51 mg/mL | Qb10% 6 min [11]: 58 mg/mL | Qb10% 2.4 min [12]: 47 mg/mL | Qb10% 6 min [12]: 56 mg/mL | Qb10% 6 min [13]: 63 mg/mL | remaining capacity 100 cycles [14]: 56% | Qb10% 2.4 min [15]: 44.4 mg/mL | Qb10% 6 min [15]: 64.8 mg/mL | Qb10% 2.4 min [16]: 57 mg/mL | Qb10% 6 min [16]: 71 mg/mL | Qb10% 2.4 min [17]: 45 mg/mL | Qb10% 6 min [17]: 47 mg/mL | Qb10%, 6 min, before incubation [18]: 78 mg/mL | Qb10% 2.4 min [19]: 44 mg/mL | Qb10% 6 min [19]: 58 mg/mL | remaining capacity 300 cycles [20]: 57% | Qb10% 2.4 min [21]: 45.1 mg/mL and 45 mg/mL | Qb10% 6 min [21]: 57.2 mg/mL and 57 mg/mL | capacity relative to ref. 100 cycles [22]: 2.07 | Qb10% 2.4 min [23]: 36.3 mg/mL | Qb10% 6 min [23]: 51.8 mg/mL | Qb10% 2.4 min [24]: 35.6 mg/mL | Qb10% 6 min [24]: 46 mg/mL | Qb10% 2.4 min [25]: 38.5 mg/mL and 37.8 mg/mL and 35.1 mg/mL | Qb10% 6 min [25]: 56.8 mg/mL and 58.6 mg/mL and 57.2 mg/mL | Qb10% 2.4 min [26]: 49 mg/mL | Qb10% 6 min [26]: 62 mg/mL | Qb10% 2.4 min [27]: 48.7 mg/mL | Qb10% 6 min [27]: 55.8 mg/mL | Qb10% 2.4 min [28]: 43 mg/mL | Qb10% 6 min [28]: 60 mg/mL | Qb10% 2.4 min [29]: 43 mg/mL | Qb10% 6 min [29]: 45 mg/mL | Qb10% 2.4 min [30]: 35 mg/mL | Qb10% 6 min [30]: 62.2 mg/mL | Qb10% 2.4 min [31]: 55 mg/mL | Qb10% 6 min [31]: 74 mg/mL | Qb10% 2.4 min [32]: 59 mg/mL | Qb10% 6 min [32]: 67 mg/mL | Qb10% 2.4 min [33]: 42 mg/mL | Qb10% 6 min [33]: 46 mg/mL | Qb10% 2.4 min [34]: 42 mg/mL | Qb10% 6 min [34]: 55 mg/mL | Qb10% 2.4 min [35]: 52 mg/mL | Qb10% 6 min [35]: 59 mg/mL | remaining capacity 200 cycles [36]: 74% | Qb10% 2.4 min [37]: 48.1 mg/mL | Qb10% 6 min [37]: 72.8 mg/mL | Qb10% 2.4 min [38]: 47 mg/mL | Qb10% 6 min [38]: 52 mg/mL | Qb10% 2.4 min [39]: 39 mg/mL | Qb10% 6 min [39]: 46 mg/mL | Qb10% 2.4 min [40]: 31.8 mg/mL | Qb10% 6 min [40]: 58 mg/mL | Qb10% 2.4 min [41]: 39.9 mg/mL and 40 mg/mL | Qb10% 6 min [41]: 63.8 mg/mL and 64 mg/mL

From US20190119318A1
